Assay results taken from paper PMC12096823, “SloR-SRE binding to the S. mutans mntH promoter is cooperative”.
Positions count from the first letter of the chain named.

Tests used:
[1] = biological target: T1, SloR (Streptococcus mutans UA159?) (UniProt I6L923); experiment: EMSA; conditions: BLI: PBS pH 7.2, 0.1% Tween-20, 100 uM MnCl2, 30 C; EMSA: 60-200 nM SloR, 16 uL, 12% native gel, buffer as cited; footprinting: 8.4 mM NaH2PO4, 11.6 mM …
T1 sequence: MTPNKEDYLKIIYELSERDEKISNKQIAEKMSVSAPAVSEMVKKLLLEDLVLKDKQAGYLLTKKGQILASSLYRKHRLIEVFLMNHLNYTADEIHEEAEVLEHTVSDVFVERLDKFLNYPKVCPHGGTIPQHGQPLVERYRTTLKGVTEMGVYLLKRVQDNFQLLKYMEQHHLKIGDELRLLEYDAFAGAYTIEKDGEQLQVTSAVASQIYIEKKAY

[2] = biological target: T1, SloR (Streptococcus mutans UA159?); experiment: footprinting; conditions: BLI: PBS pH 7.2, 0.1% Tween-20, 100 uM MnCl2, 30 C; EMSA: 60-200 nM SloR, 16 uL, 12% native gel, buffer as cited; footprinting: 8.4 mM NaH2PO4, 11.6 mM …
[3] = biological target: T2, SloR (BLI preparation) (UniProt I6L923 1-217); experiment: BLI; 100 uM MnCl2; BLI: PBS pH 7.2, 0.1% Tween-20, 100 uM MnCl2, 30 C; EMSA: 60-200 nM SloR, 16 uL, 12% native gel, buffer as cited; footprinting: 8.4 mM NaH2PO4, 11.6 mM Na2HPO4, 50 mM NaCl, 5 mM MgCl2, 10 ug/mL BSA, 200 ug/mL salmon sperm DNA, 7.5 uM MnCl2, 30 C; conditions: protein: recombinant; tags: immobilized on NTA biosensor; chain copies: 2; blunt
T2 sequence: T1 sequence

[4] = biological target: T3, SloR (UniProt I6L923 1-217); experiment: EMSA; 60 nM SloR; two band shifts, intensity 1.3 and 0.03 AU; BLI: PBS pH 7.2, 0.1% Tween-20, 100 uM MnCl2, 30 C; EMSA: 60-200 nM SloR, 16 uL, 12% native gel, buffer as cited; footprinting: 8.4 mM NaH2PO4, 11.6 mM Na2HPO4, 50 mM NaCl, 5 mM MgCl2, 10 ug/mL BSA, 200 ug/mL salmon sperm DNA, 7.5 uM MnCl2, 30 C; conditions: protein: recombinant; tags: native (untagged) SloR purified for EMSA and footprinting; chain copies: 2; label: 5' 32P; blunt
T3 sequence: T1 sequence

[5] = biological target: T3, SloR; experiment: EMSA; 60 nM SloR; BLI: PBS pH 7.2, 0.1% Tween-20, 100 uM MnCl2, 30 C; EMSA: 60-200 nM SloR, 16 uL, 12% native gel, buffer as cited; footprinting: 8.4 mM NaH2PO4, 11.6 mM Na2HPO4, 50 mM NaCl, 5 mM MgCl2, 10 ug/mL BSA, 200 ug/mL salmon sperm DNA, 7.5 uM MnCl2, 30 C; conditions: protein: recombinant, tags: native (untagged) SloR purified for EMSA and footprinting, chain copies: 2, blunt
[6] = biological target: T2, SloR (BLI preparation); experiment: BLI; 100 uM MnCl2; Kd only in figure; BLI: PBS pH 7.2, 0.1% Tween-20, 100 uM MnCl2, 30 C; EMSA: 60-200 nM SloR, 16 uL, 12% native gel, buffer as cited; footprinting: 8.4 mM NaH2PO4, 11.6 mM Na2HPO4, 50 mM NaCl, 5 mM MgCl2, 10 ug/mL BSA, 200 ug/mL salmon sperm DNA, 7.5 uM MnCl2, 30 C; conditions: protein: recombinant; tags: immobilized on NTA biosensor; chain copies: 2; label: 5' 32P in EMSA; blunt
[7] = biological target: T3, SloR; experiment: EMSA; BLI: PBS pH 7.2, 0.1% Tween-20, 100 uM MnCl2, 30 C; EMSA: 60-200 nM SloR, 16 uL, 12% native gel, buffer as cited; footprinting: 8.4 mM NaH2PO4, 11.6 mM Na2HPO4, 50 mM NaCl, 5 mM MgCl2, 10 ug/mL BSA, 200 ug/mL salmon sperm DNA, 7.5 uM MnCl2, 30 C; conditions: protein: recombinant; tags: native (untagged) SloR purified for EMSA and footprinting; chain copies: 2; label: 5' 32P; blunt
[8] = biological target: T2, SloR (BLI preparation); experiment: BLI; 100 uM MnCl2; DNA up to 20 uM; BLI: PBS pH 7.2, 0.1% Tween-20, 100 uM MnCl2, 30 C; EMSA: 60-200 nM SloR, 16 uL, 12% native gel, buffer as cited; footprinting: 8.4 mM NaH2PO4, 11.6 mM Na2HPO4, 50 mM NaCl, 5 mM MgCl2, 10 ug/mL BSA, 200 ug/mL salmon sperm DNA, 7.5 uM MnCl2, 30 C; conditions: protein: recombinant; tags: immobilized on NTA biosensor; chain copies: 2; blunt

GCATACTTAACATATGCTGTTTTTTATGCTATAATGCAATTAACCCAATTATATTAGAAAAGAGATTTTCAAAATGAAAACTCATCCAAAAAAGCAATCACTCAGCGAGGT (double strand) [mntH 111-bp probe (-75 to +36 of coding)]
binding [1]: no binding

GATTGTTTAGACATCTCTGATTAATTTTCCATAATCTCTATTGTGTTTTATACTGTCAGTAATTCTTACAAACTCTTTATATTCAGTAATAATAGGTACACCTTTTTTAATTTTTAAGCATACTTAACATATGCTGTTTTTTATGCTATAATGCAATTAACCCAATTATATTAGAAAAGAGATTTTCAAAATGAAAACTCATCCAAAAAAGCAATCACTCAGCGAGGTCAATCAGAGCGTTCGTGTTCCTAAAAATGCCTCTTTTTTAACAACTTTAAGAGCTTTTTTAGG (double strand) [mntH 291-bp footprint amplicon]
binding [2]: binds

B1: mntH.90.WT (dsDNA)
DNA 1: GTAATTCTTACAAACTCTTTATATTCAGTAATAATAGGTACACCTTTTTTAATTTTTAAGCATACTTAACATATGCTGTTTTTTATGCTA
DNA 2: TAGCATAAAAAACAGCATATGTTAAGTATGCTTAAAAATTAAAAAAGGTGTACCTATTATTACTGAATATAAAGAGTTTGTAAGAATTAC
Kd [3]: ~33 nM

B2: sloA.72.WT (dsDNA)
DNA 1: AGCCTTAATTAATGTAGATTATATTTTTAATTGAACTGAATTAAAAATATAATCCAATATAATGAATATTTT
DNA 2: AAAATATTCATTATATTGGATTATATTTTTAATTCAGTTCAATTAAAAATATAATCTACATTAATTAAGGCT
Kd [3]: ~31 nM

B3: mntH.100.WT (dsDNA)
DNA 1: TACTGTCAGTAATTCTTACAAACTCTTTATATTCAGTAATAATAGGTACACCTTTTTTAATTTTTAAGCATACTTAACATATGCTGTTTTTTATGCTATA
DNA 2: TATAGCATAAAAAACAGCATATGTTAAGTATGCTTAAAAATTAAAAAAGGTGTACCTATTATTACTGAATATAAAGAGTTTGTAAGAATTACTGACAGTA
binding result [4]: binds

B4: mntH.100.CC.CT (SRE1+SRE2 mutant) (dsDNA)
DNA 1: B3 DNA 1 with A44C, G45T, A66C, A67C
DNA 2: B3 DNA 2 with T34G, T35G, C56A, T57G
binding result ([5]; label: 5' 32P): no binding

B5: mntH.22.SRE1.WT (dsDNA)
DNA 1: ATTTTTAAGCATACTTAACATA
DNA 2: TATGTTAAGTATGCTTAAAAAT
binding result ([5]; label: 5' 32P in EMSA): binds
binding result [6]: binds

B6: mntH.22.SRE1.CC (left IR mutant) (dsDNA)
DNA 1: ATTTTTCCGCATACTTAACATA
DNA 2: TATGTTAAGTATGCGGAAAAAT
binding result [7]: no binding

B7: mntH.22.SRE1.w10.spcr (spacer variant) (dsDNA)
DNA 1: ATTTTTAACCCAATTTAACATA
DNA 2: TATGTTAAATTGGGTTAAAAAT
binding result [7]: no binding

B8: mntH.22.SRE1.10IR (SRE1 spacer with -10 SRE IRs) (dsDNA)
DNA 1: GCAATTAAGCATACTATATTAG
DNA 2: CTAATATAGTATGCTTAATTGC
binding result [7]: no binding

B9: mntH.22.SRE2.WT (dsDNA)
DNA 1: AATAATAGGTACACCTTTTTTA
DNA 2: TAAAAAAGGTGTACCTATTATT
binding result [8]: no binding

B10: mntH 159-bp promoter probe (dsDNA)
DNA 1: TCTCTATTGTGTTTTATACTGTCAGTAATTCTTACAAACTCTTTATATTCAGTAATAATAGGTACACCTTTTTTAATTTTTAAGCATACTTAACATATGCTGTTTTTTATGCTATAATGCAATTAACCCAATTATATTAGAAAAGAGATTTTCAAAATG
DNA 2: CATTTTGAAAATCTCTTTTCTAATATAATTGGGTTAATTGCATTATAGCATAAAAAACAGCATATGTTAAGTATGCTTAAAAATTAAAAAAGGTGTACCTATTATTACTGAATATAAAGAGTTTGTAAGAATTACTGACAGTATAAAACACAATAGAGA
binding result [7]: binds

B11: mntH 100-bp deletion amplicon (dsDNA)
DNA 1: AGGTACACCTTTTTTAATTTTTAAGCATACTTAACATATGCTGTTTTTTATGCTATAATGCAATTAACCCAATTATATTAGAAAAGAGATTTTCAAAATG
DNA 2: CATTTTGAAAATCTCTTTTCTAATATAATTGGGTTAATTGCATTATAGCATAAAAAACAGCATATGTTAAGTATGCTTAAAAATTAAAAAAGGTGTACCT
binding result [7]: binds
